{"source": "paper PMC10234410", "about": "“Regulation of intestinal stem cell activity by a mitotic cell cycle regulator Polo in Drosophila”", "binders": {"B1": {"name": "F2-4-3 wild-type probe (dsDNA)", "DNA 1": "GAATTTGTTGTTCAACACTCAACAAAATACCGCGATACATACCAGAAAGTGTGCGATAGC", "DNA 2": "GCTATCGCACACTTTCTGGTATGTATCGCGGTATTTTGTTGAGTGTTGAACAACAAATTC"}, "B2": {"name": "F2-4-3 mutant probe (dsDNA)", "DNA 1": "GAACGCACGAGCAGACACTCAACAAAATACCGCGATACATACCAGAAAGTGTGCGATAGC", "DNA 2": "GCTATCGCACACTTTCTGGTATGTATCGCGGTATTTTGTTGAGTGTCTGCTCGTGCGTTC"}}, "biological_target": "Sox21aHMG-BD (Drosophila melanogaster, UniProt M9PFG6 108-208)", "sequence (M9PFG6 entry or part of it)": "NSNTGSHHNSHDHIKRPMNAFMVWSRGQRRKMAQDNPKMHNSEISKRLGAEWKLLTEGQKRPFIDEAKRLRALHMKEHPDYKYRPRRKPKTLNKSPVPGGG", "assay": "EMSA; 25 mM HEPES pH 7.5, 40 mM KCl, 3 mM DTT, 10% glycerol, 0.1 mM EDTA, 0.5 mg/ml BSA, 0.5 mg/ml poly-glutamate, 25 C, 30 min; 6% native PAGE", "conditions": "protein: recombinant; tags: His-tag at C-terminus (pET-28b); label: Cy5"}
{"binder": "B1", "values": [{"measurement": "binding result", "result": "binds"}]}
{"binder": "B2", "values": [{"measurement": "binding result", "result": "no binding"}]}
